The results in this text go back to a protein production outcome set (Wang et al. 2014).

This data set in a line: label from the status in PepcDB records.
“MTNLGDLEIFARVVSTGSMSAAGRALGFSAAVISKRIKRLEDRLGARLLQRTTRQISLTEAGQGFYDRVLGILAGLEEAEAYASGRSSQVQGTLRISAPTSFGRMHIAPHLTGFMKDHPDLKLHIVLTDDFTDIVAEGFDLAIRIGELSDSSLVARKLAPVRRLLCAAPSYVARHGAPTEIGELAKHICLPAHNNDNWKLEGPDGSLSYRPEGPLVTNSSEIIREAVIAGAGIALRSTWDIGRELREGRLVQVLPQWEGSHKLTLSAVYPSRQFLPAKVRQFIDYLAALYGPVPYWEQ”: the protein production result is on record as “failed”. “MTNLISGSSYPTANLYFMQVWKIECWLRAHEFSVDETICQMVEIMTLKFEKYWEEYSDILAIAAVFDPRLKLKCLEYCFSTLDRLTSKSRLAHVRSKIYKLFKAYKKRPSSITSSSQVETLEEDIPAGYSGFYAFVSQKVGSSGKSELDIYLGEPTLDMAAFRHFNVLAYWKDNSCRFKELSSMACDVLSIPITTVASESSFSIGSGVLSKYRSSLLPENIQALICTRNWLRGFPKEGEEEEVEEEKEEEKEEEKEEA”: the protein production entry was “failed”. The value for “MTNNPLGRIIPQQPPIEPQSDAHVLKSRLEWGEPAFTILDVRDRSTYNDGHIMGAMAMPIEDLVDRASSSLEKSRDIYVYGAGDEQTSQAVNLLRSAGFEHVSELKGGLAAWKAIGGPTEGIIESRTPAGADDYNVVSRMQNHLENQKKEV” was “failed”; that for “MTNTPRQGATLAVLIDADNAAPAIVEGLLAEVAKYGVAAVKRIYGDWTRPNLSGWKDRLLAHSIQPIQQFRYTVGKNATDSAMIIDAMDLLYTGRFDGFCIVSSDSDFTRLASRIREQGLTVYGFGERKTPKPFVTACDKFIYSDVLRADADSDSDSETGSAPARKRTTQELRQDSRLVRLLQSASQAVSDEDGWSTLGGIGNYIAKQAPEFDSRNYGYGKLSELVTATNLFEVETRNGGNNKTLWVRLKKRNKGEGGGQPQPAQPQQQQQPQQQGQSSQPSQSQQPSQQAQPQQQRPAPAPARPVQPAPEPVAVIPATEPARVTEEEDDDAAGSASTLIQEAVEVSTERPKAGGKRGKRPDVTLSDTPWPIDQSVFSAPGATVLSAQVDVPEETKAAAPAEEAKKPAKKKPAAKKAAPRKRAPAKKAAAAE” was “failed”; that for “MTNVRVIKPALAALVAAAACVGGLAFSSAQPAQADTYSDLINAQNQHAASVQREAELKQQLAGASQDLANKVLELDDLTNNKIVAAQAKVTQANEDAATAQDEADAASGRLSAAQKDKETLEEQIKQTGKDYDDAHAAVAQLARDEMHGSNASDVMSVVTGATSTQDFVNSMQSRDALSRNEANAASSAATSLSTSKNRGERLAAIEKQIAVLKTQSDEKAASAQTAAETAQSERDALDKLRQEGETRRNELSSMVDSLDSQSAKQAAQTVLIASQVDSYNRQFQKEQQDAANRVDTGNQGGTPSTPVTPAPAPAPAPAPAPAPAPAPAPSVGGQGTSNGDYGNAYAAGQCTYWAYERRRQMGIGTPSYLGNGGFWWRSAPAYGLRVDHTPQVGAALSFLPGQDGADGTYGHVAVVEAVYGDGTFQISEMNWGGPWNMHYRTLTNLGQYWFVH” was “failed”. As for “MTPAAHPPRAAIADIAGHLPEQVLTNDVLAQLYPDWPAEKILAKTGIRERRIAAPRETAADLAYEAARKLFAQGAVGADQVDFVILCTQAPDYVLPTSACMLQHRLGIPTHAGALDVNLGCSGYVYGLSLAKGLVETGAARCVLLLTADTYSKYLHPLDKSVRTLFGDGASATAVIAEHGELERIGPFVFGTDGRGAPNLIVKAGLFREPKSADSAREHEDASGNVRTDEHLYMNGAEVMAFSLAEVPRAADRLLALAGEPRENIDCFVLHQANRFMLDALRKKMKIPEHKFPVLMEHCGNTVSSTLPLALETMRANGTLARGMRLMLLGFGVGYSWAGCLVNF”, the entry is “not failed”. With “MTPDFQIVTQRLQLRLITADEAEELVQCIRQSQTLHQWVDWCHALFSQQEAEQFIQATRLNWVKAEAYGFGVFERQTQTLVGMVAINEFYHTFNMASLGYWIGDRYQRQGYGKEALTALILFCFERLELTRLEIVCDPENVPSQALALRCGANREQLAPNRFLYAGEPKAGIVFSLIP”, the protein production result is recorded as “not failed”. As for “MTPDSSVYKALLESTKAIPWKINWQTMAFEYIGPQIEALLGWPQGSWKSVEDWATRMHPEDQEWVVNFCVKQSECGVDHEADYRALHRDGHYVWIRDVVHVVRDDSGEVEALIGFMFDISLEHHHHHH”, the entry is “not failed”; as for “MTPEAAYQNLLEFQRETAYLASLGALAAWDQRTMIPKKGHEHRARQMAALARLLHQRMTDPRIGEWLEKVEGSPLVQDPLSDAAVNVREWRQAYERARAIPERLAVELAQAESEAESFWEEARPRDDWRGFLPYLKRVYALTKEKAEVLFALPPAPGDPPYGELYDALLDGYEPGMRARELLPLFAELKEGLKGLLDRILGSGKRPDTSILHRPYPVEAQRRFALELLSACGYDLEAGRLDPTAHPFEIAIGPGDVRITTRYYEDFFNAGIFGTLHEMGHALYEQGLPKEHWGTPRGDAVSLGVHESQSRTWENLVGRSLGFWERFFPRAREVFASLGDVSLEDFHFAVNAVEPSLIRVEADEVTYNLHILVRLELELALFRGELSPEDLPEAWAEKYRDHLGVAPKDYKDGVMQDVHWAGGLFGYFPTYTLGNLYAAQFFQKAEAELGPLEPRFARGEFQPFLDWTRARIHAEGSRFRPRVLVERVTGEAPSARPFLAYLEKKYAALYG”, “not failed”; as for “MTPEIAIGLVTALGLGALVGLERQWRQRSSGMATHAMVALGAASFSILPLLLDNEVSVTRMAAQVVSGIGFLGAGVIMRDGLSVRGLSTAASIWSTGAIGVLAGSGFILAACMTTALIVIANLFLPALGRVVDRHTSGEAEQERFYQISVSCEARNEALVRMQLLQRMGDNRLNLQSLESHALKGSGNVEVNAVVFTLHKEDSLVEQMVGELCLAPQVTAASWVMNPAAE”, “failed”. The value for “MTPGGLFLPYHSLPQPDFLASCPTRHLKLCQCPGILAENPHQFSPTFPPGKGSCQHGALPGQVSLKEAAHTEMSLSGQDLFPSPAHPPLQPFWLPFSLCLSTPFLVADNELRLPKGQICPLHVFVLANRVVLKLCANSVWEHSKGIT” was “failed”. The value for “MTPGTIFLSSQVLMPSEDDTKRFHLAEGQELFYLERVRTADGQPIVYCIDKIPMNILPNSFSHQQESMFDLLEKNSGSVISYAVTDIEPIGYHDTISPVLECDPETALLLLKQTHYDQHDKPVLYSLNYFRA” was “not failed”; that for “MTPIHVVGIGLDGLPGLAAAVQQIIDSATLLVGSDRHLQLIPQGDTPRLSLGNFNASLKAIQTHLDTTANPQVVILTSGDPLFYGLGRWLLEVFAPDQLTFHPHLSAVQLAFSRLKLPWQDAVIYSAHGRDLAGLVPLLQRGVEKIAIYTDGEANIAAISRLYQALHIPVTYRAWVCQALGSAEEAILPWDLAQPVTALPPVHPLNLVVLLRQPQRLPPREQPIVGLGDDQFFTFADRPSLMTKREVRVLVLAELALTSTVEIVWDIGAGTGSVAVEIARLAPQATIYAIEKTAIGFQLIERNRRAFGLANLIPLQGTAPQCLRDLPPPDRVFIGGSGAQLLANLDYCWSHLNAGGRLVLAIATLEHQGQVLHWCQTHQINPQVLQVQLSRSVP” was “failed”. Consider “MTPLPPRPGPGARLARPAAAVLLVAAIGALAAFAPGPATRALESLRQSAPAAAAALAAAYVASGPLMIPAPLLHLAAGFALGPVSGSLVAIPASTLGACAAFAAGRWLVRERAARLAARSPALAGVDAALAASGFRVVLLLRLAPLAPFTVLNYLLGATPVPLRAFALASLLGSVPGLILSVYVGSLAADAAALRATVDAGRGGPGALILPAIGTGAILLAISWVLRRALAASAGARPPPA”, for which the protein production entry was “failed”. As for “MTPNRRPRPSGAEVRRKIRGPDGLALLPSGRVSWLPDDFVHPVLVPLPGGDHHLRPIRETDTPLDYPAVMGSRERLWTVYGPAWGWPAATMTYEADRADLLRHEKEIAAHQSFNYALFDTAETALLGCVYIDPPERAGADGDISWWVVDELVDSTVERALDALVPQWIAADWPFERPRFIGREISWSDYLALPGIPTVP”, the entry is “failed”.
